Results reported in patent US20150377889A1, “GALECTIN-3 AS A MARKER FOR PROSTATE CANCER” (Wayne State University, priority 2013, published 2015).

How the values were obtained:
[1] = system: co-cultured BAMEC and LNCaP cells; assay: Three-dimensional growth and tube formation assay, BAMEC/LNCaP co-culture on […]; format: cell-based, bovine, human
Method: Three-dimensional Growth and Tube Formation Assay. To analyze in vitro angiogenesis and interactions between epithelial and endothelial cell formation of tubular networks by co-cultured BAMEC and LNCaP cells, a three-dimensional growth and tube formation assay was performed. Briefly, […]® (10 μl) was added to each chamber of the slide (μ-Slide, ibidi, Martinsried, Germany) and gelled by a 30-min incubation at room temperature, after which 15,000 BAMEC and 5000 LNCaP cells were plated onto the gel in 50 μl of Eagle's minimal essential complete medium. In some chambers, full-length galectin-3 or its fragments were added. After 36 hr, three-dimensional structures were observed under phase contrast microscope and photographed. Images were acquired with an Olympus IX71 microscope supporting a Hamamatsu ORCA-ER video camera. Tube formation image analysis was done using the web-based Image Analysis Win-Tube module of Wimasis online software.
Three-dimensional heterotypic co-cultures of epithelial (LNCaP) and endothelial (BAMEC) cells were performed on […]® to study tube formation in the presence of 10 μg/ml galectin-3 and its fragments. […] FIG. 2B presents a quantitative evaluation of the tube formation assay.

[2] = system: LNCaP, Du145, and PC3M cell lines; assay: Wound-healing (scratch) assay; format: cell-based, human; conditions: 24 hr, compared with the control
Method: Wound-healing Assay. A wound-healing assay, the scratch assay, was performed according to the protocol published in Liang, et al. (2007), Nat. Protoc. 2, 329-333. Briefly, in this scratch assay 60-mm dishes were coated with ECM and incubated overnight, unbound ECM was removed and the dishes were blocked with bovine serum albumin. Subconfluent growing cells were resuspended in a tissue culture dish by washing cells with PBS, adding versene containing trypsin, and mixing cells with medium containing serum. Cells were then plated onto the prepared 60-mm dish to create a confluent monolayer, and incubated for 6 hr at 37° C.
The cell lines LNCaP (null galectin-3), DU145 (stable clone with reduced galectin-3 expression), and PC3M were used to examine the effect of full-length galectin-3, galectin-3 1-107, and galectin-3 108-250 on prostate cancer cell motility using the scratch assay. The assay was performed with LNCaP, Du145, and PC3M cultured cell lines stimulated by full-length galectin-3, and fragments galectin-3 1-107 and 108-250. A uniform wound was made in each plate using a 1-μl pipette tip. The wound area was observed immediately, then at 24 hr after creation the cells were counted. Cells were grown under identical conditions.

B1: galectin-3 1-107: recombinant fragment 1-107 of human galectin-3 (SEQ ID NO:2), NH2-terminal domain with collagen-like sequence (protein, listed as Homo sapiens)
chain: MADNFSLHDALSGSGNPNPQGWPGAWGNQPAGAGGYPGASYPGAYPGQAPPGAYPGQAPPGAYPGAPGAYPGAPAPGVYPGPPSGPGAYPSSGQPSATGAYPATGPY
tube formation: loops ([1]; 10 μg/ml protein added to medium, 36 hr, control 0): 0
branching morphogenesis of endothelial cells ([1]; 10 μg/ml protein, BAMEC/LNCaP co-culture): failed to do so
prostate cancer cell motility [2]: did not show a significant increase in motility
